From publication doi:10.1101/2021.12.11.472236 (bioRxiv, 2021)
“And” between values parts separate entries of the source, which are not always exact repeats. Equal values may be shown once.

B1: 10-40 Fab (Fab, V domains shown)
VH: QLQLQESGPGLVKPSETLSLTCTVSGGSISSSNFYWGWIRQPPGKGLEWIASITYSGRTFYNPSLKSRVAISVDTSKNQFSLKLSSVTAADTAVYYCARTFPSYYDRSGYHYLNYGMDVWGQGTTVTVSS
VL: NFMLTQPHSMSESPGKTVTISCTRSSGSIASNYVQWYQQRPGSSPTTVIYEDNQRPSGVPDRFSGSIDSSSNSASLTISGLKTEDEADYYCQSYDSSSWVFGGGTKLTVL
B2: 10-28 Fab (Fab, V domains shown)
VH: QVQLVESGGGVVQPGRSLRLSCAASGFTFSSYDMHWVRQAPGKGLEWVAVISYDGSSKFYAESVKGRFTISRDNSKNTLYLQMNSLRAEETAVYYCVKDGEQLVPLFDYWGQGTLVTVSS
VL: not shown
B3: 11-11 Fab (Fab, V domains shown)
VH: QVQLQESGPGLVKPSQTLSLTCTVSGGSISSGGYYWSWIRQHPGKGLEWIGYIYYSGSTYYNPSLKSRVTISVDTSKNQFSLKVSSVTAADTAVYYCASSNYYDGSGYNLLESYGMDVWGQGTSVTVSS
VL: QSVLTQPPSVSGAPGQRVTISCTGSSSNIGAGYDVHWYQQLPGTAPKLLIYGNSNRPSGVPDRFSGSRSGTSASLAITGLQAEDEADYYCQSYDSSLSGSWVFGGGTKVTVL

Molecular target: S2P-prefusion-stabilized spike protein from SARS-CoV-2 B.1.351 (SARS-CoV-2, B.1.351 (Beta), strain)
Assay: cryo-EM structure

| Binder | stoichiometry N |
| --- | --- |
| B1 | 3 Fabs per spike |
| B2 | 3 Fabs per spike |
| B3 | 3 Fabs per spike and 2 Fabs per spike |

Molecular target: S2P-prefusion-stabilized spike protein from SARS-CoV-2 WA-1 (SARS-CoV-2, WA-1, UniProt P0DTC2, stabilised)
Assay: cryo-EM structure

| Binder | binding result |
| --- | --- |
| B1 | binds |
| B2 | binds |
| B3 | binds |
